Measured values published in patent US20200002426A1 (published 2020).

Legend:
[1] = target: huTGF-β1 (human, UniProt P01137 279-390); test: ELISA; simultaneous binding, detected with biotinylated hu PD-L1
[2] = target: human PD-L1 on CHO-K1 cells (human, UniProt Q9NZQ7 19-290); test: FACS binding
[3] = target: His tagged TGF-β1 (UniProt P01137 279-390); test: BLI
[4] = target: His-tagged huPD-L1 (human, UniProt Q9NZQ7 19-238); test: BLI
[5] = target: FITC labeled human PD-L1-Fc protein (human, UniProt Q9NZQ7 19-238, FITC labeled (sites not given)); test: FACS blocking of PD-L1/PD-1
Sequence of FITC labeled human PD-L1-Fc protein (Q9NZQ7 19-238): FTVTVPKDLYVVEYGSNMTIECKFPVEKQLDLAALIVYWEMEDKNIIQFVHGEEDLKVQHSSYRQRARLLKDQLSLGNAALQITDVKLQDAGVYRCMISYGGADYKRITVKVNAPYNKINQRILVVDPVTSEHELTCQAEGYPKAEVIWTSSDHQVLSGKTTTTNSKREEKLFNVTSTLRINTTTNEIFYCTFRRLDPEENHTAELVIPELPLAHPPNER

Sequence of His tagged TGF-β1 (P01137 279-390): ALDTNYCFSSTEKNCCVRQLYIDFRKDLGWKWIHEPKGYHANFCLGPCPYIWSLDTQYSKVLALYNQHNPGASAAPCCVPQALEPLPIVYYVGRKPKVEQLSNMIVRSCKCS
Sequence of huTGF-β1 (P01137 279-390): as above
Sequence of His-tagged huPD-L1 (Q9NZQ7 19-238): as the sequence (Q9NZQ7 19-238) above
Sequence of human PD-L1 on CHO-K1 cells (Q9NZQ7 19-290): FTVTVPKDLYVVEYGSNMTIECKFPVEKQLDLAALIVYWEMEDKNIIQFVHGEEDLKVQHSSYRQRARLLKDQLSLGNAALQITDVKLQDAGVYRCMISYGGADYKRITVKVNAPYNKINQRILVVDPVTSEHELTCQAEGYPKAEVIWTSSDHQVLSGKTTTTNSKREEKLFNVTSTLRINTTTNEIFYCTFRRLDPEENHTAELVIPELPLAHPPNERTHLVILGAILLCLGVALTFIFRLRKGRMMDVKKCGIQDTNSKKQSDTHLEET

EC50 [1]: 10.3 nM
EC50 [2]: 1.6 nM
Kd [3]: 0.28 nM
Kd [4]: 0.83 nM
IC50 [5]: 1.23 nM
B1: Bi-PLB-1.2 (antibody)
chain 1: not shown
chain 2: DIQMTQSPSFLSASVGDRVTITCKASQNVGTNVAWYQQKPGKAPKALIYSASYRYSGVPSRFSGSGSGTEFTLTISSLQPEDFATYYCQQYYSYPYTFGQGTKLEIKRTVAAPSVFIFPPSDEQLKSGTASVVCLLNNFYPREAKVQWKVDNALQSGNSQESVTEQDSKDSTYSLSSTLTLSKADYEKHKVYACEVTHQGLSSPVTKSFNRGEC
